# Publication PMC5947639
# Experiments:
# [1] = biological target: MafR_(V583), untagged MafR protein from Enterococcus faecalis V583 (Enterococcus faecalis V583); test: AUC
# [2] = biological target: MafR_(V583), untagged MafR protein from Enterococcus faecalis V583 (Enterococcus faecalis V583); test: SEC
substance,measurement,setting,value
"MafR_(V583), untagged MafR protein from Enterococcus faecalis V583 (natural protein)",stoichiometry N,[1],2
same,stoichiometry N,[2],2
